Key:
Experiment in all cases: cell-based or functional assay
[1] = target: T1, human RXFP1 (human, UniProt Q9HBX9 1-757)
T1 sequence (looked up): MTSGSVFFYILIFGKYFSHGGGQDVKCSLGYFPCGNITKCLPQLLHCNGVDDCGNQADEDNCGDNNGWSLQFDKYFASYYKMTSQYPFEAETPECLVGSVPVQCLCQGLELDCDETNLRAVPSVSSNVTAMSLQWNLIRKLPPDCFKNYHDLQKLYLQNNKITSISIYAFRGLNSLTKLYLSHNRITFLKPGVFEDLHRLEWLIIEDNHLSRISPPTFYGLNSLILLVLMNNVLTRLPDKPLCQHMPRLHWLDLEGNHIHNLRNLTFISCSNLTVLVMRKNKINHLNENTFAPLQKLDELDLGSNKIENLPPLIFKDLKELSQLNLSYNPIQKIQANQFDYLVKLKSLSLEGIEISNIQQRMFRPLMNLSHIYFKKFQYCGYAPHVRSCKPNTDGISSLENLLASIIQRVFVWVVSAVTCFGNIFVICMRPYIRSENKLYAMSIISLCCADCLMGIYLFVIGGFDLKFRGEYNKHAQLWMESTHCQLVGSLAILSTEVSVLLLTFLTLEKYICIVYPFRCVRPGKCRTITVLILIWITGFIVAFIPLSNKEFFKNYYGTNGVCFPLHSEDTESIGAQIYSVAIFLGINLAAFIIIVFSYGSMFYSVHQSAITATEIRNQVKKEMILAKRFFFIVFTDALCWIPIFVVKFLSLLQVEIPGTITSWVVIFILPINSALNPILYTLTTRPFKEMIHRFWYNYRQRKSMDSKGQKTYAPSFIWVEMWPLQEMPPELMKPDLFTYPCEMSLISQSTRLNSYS

[2] = target: T2, cynomolgus monkey RXFP1 (cynomolgus monkey, UniProt H9ERA2 1-757 (rhesus entry))
T2 sequence: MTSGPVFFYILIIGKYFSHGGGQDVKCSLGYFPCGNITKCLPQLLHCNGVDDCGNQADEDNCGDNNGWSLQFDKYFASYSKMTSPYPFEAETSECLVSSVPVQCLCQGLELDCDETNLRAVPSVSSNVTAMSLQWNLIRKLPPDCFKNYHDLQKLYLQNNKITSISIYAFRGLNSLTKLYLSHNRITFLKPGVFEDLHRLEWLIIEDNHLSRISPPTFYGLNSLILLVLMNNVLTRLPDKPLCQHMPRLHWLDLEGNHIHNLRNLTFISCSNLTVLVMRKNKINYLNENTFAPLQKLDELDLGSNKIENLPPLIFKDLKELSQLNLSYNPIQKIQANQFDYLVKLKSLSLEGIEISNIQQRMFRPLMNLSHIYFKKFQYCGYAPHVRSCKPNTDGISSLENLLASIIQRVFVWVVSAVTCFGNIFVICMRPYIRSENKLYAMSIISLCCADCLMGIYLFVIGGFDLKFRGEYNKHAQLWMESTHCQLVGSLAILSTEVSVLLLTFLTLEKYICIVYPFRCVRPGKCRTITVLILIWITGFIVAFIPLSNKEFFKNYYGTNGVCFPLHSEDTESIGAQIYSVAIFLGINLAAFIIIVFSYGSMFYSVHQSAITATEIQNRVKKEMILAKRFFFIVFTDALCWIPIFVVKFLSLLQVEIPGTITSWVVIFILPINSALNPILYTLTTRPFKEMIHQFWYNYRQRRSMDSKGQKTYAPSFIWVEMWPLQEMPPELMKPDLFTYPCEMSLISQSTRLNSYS

[3] = target: dog RXFP1 (dog)
[4] = target: T3, rat RXFP1 (rat, UniProt Q6R6I6 1-758)
T3 sequence (looked up): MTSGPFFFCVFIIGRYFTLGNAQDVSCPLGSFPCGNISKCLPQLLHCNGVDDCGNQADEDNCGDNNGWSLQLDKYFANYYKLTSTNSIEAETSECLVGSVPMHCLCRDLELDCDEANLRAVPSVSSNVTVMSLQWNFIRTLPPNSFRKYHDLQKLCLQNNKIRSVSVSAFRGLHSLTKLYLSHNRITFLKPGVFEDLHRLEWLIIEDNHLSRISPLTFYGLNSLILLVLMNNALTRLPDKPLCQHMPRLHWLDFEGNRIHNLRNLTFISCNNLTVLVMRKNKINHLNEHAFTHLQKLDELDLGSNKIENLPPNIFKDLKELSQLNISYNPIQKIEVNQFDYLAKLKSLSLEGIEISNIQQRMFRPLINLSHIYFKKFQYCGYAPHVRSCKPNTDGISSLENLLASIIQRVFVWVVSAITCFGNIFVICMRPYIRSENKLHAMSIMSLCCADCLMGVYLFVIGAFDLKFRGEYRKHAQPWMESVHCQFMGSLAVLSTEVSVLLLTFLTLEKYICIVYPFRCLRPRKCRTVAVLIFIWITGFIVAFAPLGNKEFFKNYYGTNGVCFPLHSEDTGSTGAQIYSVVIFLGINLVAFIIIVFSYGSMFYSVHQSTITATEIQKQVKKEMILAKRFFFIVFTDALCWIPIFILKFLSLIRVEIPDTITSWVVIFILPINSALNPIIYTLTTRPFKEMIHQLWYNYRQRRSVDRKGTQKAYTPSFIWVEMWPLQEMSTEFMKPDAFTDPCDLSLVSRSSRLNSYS

[5] = target: T4, mouse RXFP1 (mouse, UniProt Q6R6I7 1-758)
T4 sequence (looked up): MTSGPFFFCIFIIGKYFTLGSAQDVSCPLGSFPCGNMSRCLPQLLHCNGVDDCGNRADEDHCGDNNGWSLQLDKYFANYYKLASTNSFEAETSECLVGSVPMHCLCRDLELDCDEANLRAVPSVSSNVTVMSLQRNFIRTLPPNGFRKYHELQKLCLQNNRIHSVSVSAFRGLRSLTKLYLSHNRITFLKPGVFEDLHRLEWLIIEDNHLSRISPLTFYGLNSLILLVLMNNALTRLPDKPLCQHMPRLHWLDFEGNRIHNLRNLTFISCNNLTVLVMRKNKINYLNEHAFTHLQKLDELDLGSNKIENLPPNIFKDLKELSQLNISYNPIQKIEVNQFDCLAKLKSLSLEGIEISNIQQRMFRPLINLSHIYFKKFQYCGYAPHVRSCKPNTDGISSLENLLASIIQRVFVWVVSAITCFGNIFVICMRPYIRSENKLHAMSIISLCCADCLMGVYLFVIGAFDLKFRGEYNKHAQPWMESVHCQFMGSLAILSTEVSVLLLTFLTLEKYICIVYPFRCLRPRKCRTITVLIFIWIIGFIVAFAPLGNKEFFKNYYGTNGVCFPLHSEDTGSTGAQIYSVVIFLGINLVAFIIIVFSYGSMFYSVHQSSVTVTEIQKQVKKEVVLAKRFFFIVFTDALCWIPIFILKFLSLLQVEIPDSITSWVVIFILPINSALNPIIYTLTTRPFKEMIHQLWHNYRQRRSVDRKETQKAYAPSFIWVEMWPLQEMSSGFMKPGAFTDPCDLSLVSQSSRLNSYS

B1: RLX-A-AQ1-20KPEG (ligand)
chain 1: XLYSALANKCCHVGCTKRSLARFC
chain 2: ASWMEEVIKLCGRELVRAQIAICGMSTWS
modifications: para-acetylphenylalanine (pAcF, X) at position 1 of the A chain, linked to a 20 kDa PEG via an oxime linkage
With B1 the “RLX-A-AQ1-20KPEG Potency Ratio (hRXFP1-1.0), cAMP assay” value (shortened to “RLX-A-AQ1-20KPEG Potency Ratio”) [1] was 1 fold, the “RLX-A-AQ1-20KPEG Potency Ratio” value [2] was 1.6 fold and the “RLX-A-AQ1-20KPEG Potency Ratio” value [3] was 4.7 fold. For the same binder, the “RLX-A-AQ1-20KPEG Potency Ratio” value [4] was 0.34 fold and the “RLX-A-AQ1-20KPEG Potency Ratio” value [5] was 0.66 fold.
